Results published in paper PMC10864358, “Structural and mechanistic characterization of bifunctional heparan sulfate N-deacetylase-N-sulfotransferase 1” (Nature Communications, 2024).

What was measured:
[1] = target: T1, solubilized recombinant NDST1 (residues 79-882), bifunctional heparan sulfate … (human, UniProt P52848); assay: cell-based or functional assay
[2] = target: T1, solubilized recombinant NDST1 (residues …); assay: cell-based or functional assay; remark: listed apart in the source
[3] = target: T1, solubilized recombinant NDST1 (residues …); assay: differential scanning fluorimetry; NDST1 (1 µg) in 20 µL PBS pH 7.4 with 20X Sypro Orange, with 10.8 µM nAb; 25 to 95 °C; conditions: both partners purified
[4] = target: T2, biotinylated C-terminal Avitagged NDST1 (Homo sapiens, UniProt P52848, biotin on the C-terminal Avitag (BirA biotin-protein ligase)); assay: BLI; biotinylated NDST1 immobilised on Octet SA biosensors, nanobodies in PBS-T, 25 °C, 1000 rpm; steady-state responses fitted to a 1:1 model; conditions: both partners purified
T2 construct: human N-deacetylase-N-sulfotransferase 1 (NDST1) with a C-terminal Avitag, made by PCR with tailed primers and subcloned into pOMNIBac; also called biotinylated NDST1; source: insect cells (baculovirus, pOMNIBac), purified; biotinylated with the BirA kit, then a final round of SEC; not shown: Avitag, C-terminal, kept
T2 sequence (P52848 79-882): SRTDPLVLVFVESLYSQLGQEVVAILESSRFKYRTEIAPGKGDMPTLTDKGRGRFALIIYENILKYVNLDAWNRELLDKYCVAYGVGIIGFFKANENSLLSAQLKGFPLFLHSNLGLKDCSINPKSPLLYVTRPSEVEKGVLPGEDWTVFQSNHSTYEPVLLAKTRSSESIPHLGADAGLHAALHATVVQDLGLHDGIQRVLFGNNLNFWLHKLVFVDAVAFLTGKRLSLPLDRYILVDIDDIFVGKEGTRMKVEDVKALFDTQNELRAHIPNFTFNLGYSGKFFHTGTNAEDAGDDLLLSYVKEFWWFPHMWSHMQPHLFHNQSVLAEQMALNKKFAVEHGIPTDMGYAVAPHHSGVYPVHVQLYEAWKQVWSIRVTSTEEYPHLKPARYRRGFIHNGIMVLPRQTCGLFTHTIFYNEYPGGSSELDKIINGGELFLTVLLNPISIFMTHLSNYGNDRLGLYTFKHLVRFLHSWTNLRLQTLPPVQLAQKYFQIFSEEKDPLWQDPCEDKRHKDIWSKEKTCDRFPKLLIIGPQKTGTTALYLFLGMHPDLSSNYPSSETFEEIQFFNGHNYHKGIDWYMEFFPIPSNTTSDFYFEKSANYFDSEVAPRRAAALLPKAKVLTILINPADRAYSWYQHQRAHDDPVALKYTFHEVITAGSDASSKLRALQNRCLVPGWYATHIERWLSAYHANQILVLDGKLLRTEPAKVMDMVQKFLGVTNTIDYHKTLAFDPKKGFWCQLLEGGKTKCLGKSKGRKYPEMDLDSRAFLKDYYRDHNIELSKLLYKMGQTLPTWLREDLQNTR

[5] = target: T2, biotinylated C-terminal Avitagged NDST1; assay: SPR; biotinylated NDST1 immobilised on a BiotinCAP sensor chip (Biacore T200), nanobody titrated from 10 µM, 25 °C, 20 mM MES pH 6.5, 100 mM NaCl, 0.05% Tween-20; steady-state responses fitted to a 1:1 model; conditions: both partners purified

T1 sequence (P52848 79-882): as above

Binder	fold enhancement of NDST1 activity in the coupled enzyme assay [1] [fold]	kcat of NDST1 with respect to K5 with 30 µM nAb13, against NDST1 alone (0.26 min^-1 vs 0.14 min^-1) [1] [%]	EC50 of enhancement of NDST1 activity (fluorometric coupled enzyme assay with Sult1a1-K65E-R68G, K5 substrate) [2] [nM]	stabilization of NDST1 thermal denaturation with 10.8 µM nAb [3] [°C]	Kd [4] [nM]	Kd [5] [nM]	fold decrease in kcat/KM of NDST1 with respect to K5 with 30 µM nAb7, against NDST1 alone (0.06 vs 0.18 min^-1 mg^-1 mL) [1] [fold]	KI of inhibition of NDST1 activity (fluorometric coupled enzyme assay with Sult1a1-K65E-R68G, K5 substrate; Morrison equation) [2] [nM]
nAb13 (VHH, in PDB 8CHS nAb13 is modeled only as an all-Calpha chain derived from the nAb7 structure; llama VHH from an NDST1-immunized library, selected by phage display; also called anti-NDST1 nanobody 13; source: E. coli WK6, periplasmic extract, purified (HisTrap, SEC)) VHH: QVQLVESGGGLVQSGGSLRLSCTASRRASSTIGWFRQAPGKEREFVAGINWSLETATYQDSIKDRFTISRDNANNTVYLQMNSLKPEDTAVYYCAASPYRVMGDTTLYPYWGQGTQVTVSS	~2	~86	450	~1.9	240	530		
nAb6 (VHH, llama VHH from an NDST1-immunized library, selected by phage display; also called anti-NDST1 nanobody 6; source: E. coli WK6, periplasmic extract, purified (HisTrap, SEC)) VHH: QVQLVESGGDLVQPGGSLRLSCAASKTIFVISDMGWYRQAPGKQRELVAMITSGGTTNYADSVKGRFTISRDNTQNTVWLQMNSLKPEDTAVYYCYARVERWRPTDSWGQGTQVTVSS					470	840		
nAb7 (VHH, llama VHH from an NDST1-immunized library, selected by phage display; Long CDR3 loop R98-F116; also called anti-NDST1 nanobody 7; source: E. coli WK6, periplasmic extract, purified (HisTrap, SEC)) VHH: QVQLVESGGGSVQAGGSLRLSCAASGFNVDDYAIGWFRQSPGKEREGVSCIGGDGTTYYENSVKGRFTVSSDKRDNTVYLQMNNLRPEDTAIYFCAADRSKYCVGKYFSTPSQYDFWGRGTHVTVSS				~4.4	120	220	~3	240
nAb5 (VHH, llama VHH from an NDST1-immunized library, selected by phage display; also called anti-NDST1 nanobody 5; source: E. coli WK6, periplasmic extract, purified (HisTrap, SEC)) VHH: QVQLVESGGGLVQAGGSLRLSCAASGRTFSSYVMGWFRQAPGKEREFVAAISWSGGTTDYAGSVKGRFTISRDNDRKTMYLEMNDLKPEDTALYYCNFKETWPRTGDYWGPGTQVTVSS				~2.6		570		3300
nAb1 (VHH, llama VHH from an NDST1-immunized library, selected by phage display; also called anti-NDST1 nanobody 1; source: E. coli WK6, periplasmic extract, purified (HisTrap, SEC)) VHH: QVQLVESGGGLVQAGGSLRLSCAASDRTFTTYAMAWFRRAPPGKEREFVASIRWDGFGTYYTDSVKGRFTISRDSAKNEAYLQMNSLRPEDTGVYYCAAGLLFGNTKGYDHWGQGTQVTVSS					2670	2370		
